{"source": "paper PMC3713096", "about": "(Molecular cell, 2013)", "binders": {"B1": {"name": "Cdc20_(1-163) (Cdc20^N) (domain or fragment, human, UniProt Q12834 1-163, looked up)", "chain": "MAQFAFESDLHSLLQLDAPIPNAPPARWQRKAKEAAGPAPSPMRAANRSHSAGRTPGRTPGKSSSKVQTTPSKPGGDRYIPHRSAAQMEVASFLLSKENQPENSQTPTKKEHQKAWALNLNGFDVEEAKILRLSGKPQNAPEGYQNRLKVLYSQKATPGSSRK"}, "B2": {"name": "GST-Cdc20_(166-499) (GST-Cdc20^C) (domain or fragment, human, UniProt Q12834 166-499, looked up)", "chain": "RYIPSLPDRILDAPEIRNDYYLNLVDWSSGNVLAVALDNSVYLWSASSGDILQLLQMEQPGEYISSVAWIKEGNYLAVGTSSAEVQLWDVQQQKRLRNMTSHSARVGSLSWNSYILSSGSRSGHIHHHDVRVAEHHVATLSGHSQEVCGLRWAPDGRHLASGGNDNLVNVWPSAPGEGGWVPLQTFTQHQGAVKAVAWCPWQSNVLATGGGTSDRHIRIWNVCSGACLSAVDAHSQVCSILWSPHYKELISGHGFAQNQLVIWKYPTMAKVAELKGHTSRVLSLTMSPDGATVASAAADETLRLWRCFELDPARRREREKASAAKSSLIHQGIR"}, "B3": {"name": "GST-Cdc20^N (domain or fragment, human, UniProt Q12834 1-163, looked up)", "chain": "B1 chain"}, "B4": {"name": "Cdc20^C (Cdc20_(166-499), free in solution) (domain or fragment, human, UniProt Q12834 166-499, looked up)", "chain": "B2 chain"}, "B5": {"name": "BubR1_(1-477) (BubR1^N) (domain or fragment, human, UniProt O60566 1-477, looked up)", "chain": "MAAVKKEGGALSEAMSLEGDEWELSKENVQPLRQGRIMSTLQGALAQESACNNTLQQQKRAFEYEIRFYTGNDPLDVWDRYISWTEQNYPQGGKESNMSTLLERAVEALQGEKRYYSDPRFLNLWLKLGRLCNEPLDMYSYLHNQGIGVSLAQFYISWAEEYEARENFRKADAIFQEGIQQKAEPLERLQSQHRQFQARVSRQTLLALEKEEEEEVFESSVPQRSTLAELKSKGKKTARAPIIRVGGALKAPSQNRGLQNPFPQQMQNNSRITVFDENADEASTAELSKPTVQPWIAPPMPRAKENELQAGPWNTGRSLEHRPRGNTASLIAVPAVLPSFTPYVEETARQPVMTPCKIEPSINHILSTRKPGKEEGDPLQRVQSHQQASEEKKEKMMYCKEKIYAGVGEFSFEEIRAEVFRKKLKEQREAELLTSAEKRAEMQKQIEEMEKKLKEIQTTQQERTGDQQEETMPTKET"}}, "test_in_all_cases": "pull-down", "key": {"[1]": {"molecular_target": "B2"}, "BubR1_(1-363)": {"molecular_target": "BubR1_(1-363) (human, UniProt O60566 1-363)"}, "[2]": {"molecular_target": "B4"}, "GST-BubR1^N": {"molecular_target": "GST-BubR1^N (human, UniProt O60566 1-477)"}, "[3]": {"molecular_target": "Cdc20 (full length, Cdc20^FL) (human, UniProt Q12834 1-499)"}}}
{"binder": "B1", "values": [{"measurement": "binding result", "setting": "[1]", "value": "binds"}]}
{"binder": "B2", "values": [{"measurement": "binding result", "setting": "BubR1_(1-363)", "value": "binds"}]}
{"binder": "B3", "values": [{"measurement": "binding result", "setting": "[2]", "value": "binds"}]}
{"binder": "B4", "values": [{"measurement": "binding result", "setting": "GST-BubR1^N", "value": "binds"}]}
{"binder": "B5", "values": [{"measurement": "fold increase of association with Mad2 against without Mad2", "setting": "[3]", "value": "~6", "unit": "fold"}]}
